Reference: patent US20140289906A1, “Compositions Having Dicamba Decarboxylase Activity and Methods of Use” (priority 2013, published 2014)
Where a chain is given by its changes, count along the chain named. Names may count otherwise. “Also recorded” adds a separate entry of the source.

B1: 116 (protein)
chain: MAQGKVALEEHFAIPETLQDAAGFVPGDYWKELQHRLLDIQDRRVRLMDEHGIETMILSLNAPAVQAIADSTRANETARRANDFLAEQVAKQPTRFRGFAALPMQDPELAARELERCVKELGFVGALVNGFSQDNRSAVPLYYDMAQYWPFWETVQALDVPFYLHPRNPLPSDARIYDGHAWLLGPTWAFGQETAVHALRLMGSGLFDKYPALKIILGHMGEGLPYSMWRIDHRNAWIKTTPKYPAKRKIVDYFNENFYLTTSGNFRTQTLIDAILEIGADRILFSTDWPFENIDHAADWFENTSISEADRKKIGWGNAQNLFKLNR
modifications: Dicamba decarboxylase variant clone DC.30.007
B2: 109 (protein)
chain: MAQGKVALEEHFAIPETLQDSAGFVPGDYWKELQHRLLDIQDTRLKLMDAHGIETMILSLNAPAVQAIPDRRKAIEIARRANDVLAEECAKRPDRFLAFAALPLQDPDAATEELQRCVNDLGFVGALVNGFSQEGDGQTPLYYDLPQYRPFWGEVEKLDVPFYLHPRNPLPQDSRIYDGHPWLLGPTWAFAQETAVHALRLMASGLFDEHPRLNIILGHMGEGLPYMMWRIDHRVAWVKLPPRYPAKRRFMDYFNENFHITTSGNFRTQTLIDAILEIGADRILFSTDWPFENIDHASDWFNATSIAEADRVKIGRTNARRLFKLDGA
modifications: Dicamba decarboxylase variant clone DC.4.032
B3: 110 (protein)
chain: B2 chain with A22M, Q34M, V235M
modifications: Dicamba decarboxylase variant clone DC.4.111
B4: 111 (protein)
chain: B2 chain with A22M, Q34M, V235M, V238I
modifications: Dicamba decarboxylase variant clone DC.4.112
B5: 112 (protein)
chain: B2 chain with Q34V
modifications: Dicamba decarboxylase variant clone DC.4.113
B6: 113 (protein)
chain: B2 chain with W30L, Q34F
modifications: Dicamba decarboxylase variant clone DC.4.114
B7: G327Q: point mutation of SEQ ID NO:109 (protein)
chain: B2 chain with G327Q
modifications: Dicamba decarboxylase variant clone DC.4.032
B8: A328D: point mutation of SEQ ID NO:109 (protein)
chain: B2 chain with A328D
modifications: Dicamba decarboxylase variant clone DC.4.032
B9: A328R: point mutation of SEQ ID NO:109 (protein)
chain: B2 chain with A328R
modifications: Dicamba decarboxylase variant clone DC.4.032
B10: G27A: point mutation of SEQ ID NO:109 (protein)
chain: B2 chain with G27A
modifications: Dicamba decarboxylase variant clone DC.4.032
B11: G27S: point mutation of SEQ ID NO:109 (protein)
chain: B2 chain with G27S
modifications: Dicamba decarboxylase variant clone DC.4.032
B12: G27T: point mutation of SEQ ID NO:109 (protein)
chain: B2 chain with G27T
modifications: Dicamba decarboxylase variant clone DC.4.032
B13: L38I: point mutation of SEQ ID NO:109 (protein)
chain: B2 chain with L38I
modifications: Dicamba decarboxylase variant clone DC.4.032
B14: D42A: point mutation of SEQ ID NO:109 (protein)
chain: B2 chain with D42A
modifications: Dicamba decarboxylase variant clone DC.4.032
B15: D42M: point mutation of SEQ ID NO:109 (protein)
chain: B2 chain with D42M
modifications: Dicamba decarboxylase variant clone DC.4.032
B16: D42S: point mutation of SEQ ID NO:109 (protein)
chain: B2 chain with D42S
modifications: Dicamba decarboxylase variant clone DC.4.032

Assays:
[1] = 14C assay: 14CO2 capture from [14C]-carboxyl-labeled dicamba with purified protein; type: biochemical
[2] = LC-MS/MS detection of 4-chloro-3-methoxy phenol; type: biochemical; conditions: purified protein, dicamba
Method: The decarboxylated and chloro hydrolyzed product, 4-chloro-3-methoxy phenol (FIG. 1D), is measured using a LC-MS/MS analytical procedure. […] 10 ul is removed from the reaction mixture and mixed with 90 ul pre-chilled methanol followed by centrifugation at 14,000 rpm for 15 min at 4° C. 10 ul of the supernatant is then transferred into 170 ul ddH2O to achieve 5% methanol solution for injection. 50 ul of the prepared sample is injected into a 4000 Q Trap LC-MS/MS system for sample analysis. LC-MS/MS parameters are: Mobile Phase A, 2 mM ammonium acetate in water; Mobile Phase B, 2 mM ammonium acetate in methanol; Column, Aquasil, 100×2.1 mm, 3 μm, C18 column; Flow Rate, 0.6 ml/min. The MS/MS fragment 157/142 which is common to 4-chloro-3-methoxy phenol, 2-chloro-5-methoxy phenol, and 3-chloro-5-methoxy phenol is monitored at a retention time of 2.88 min.

[3] = GC/MS detection of 2,5-dichloro phenol (2,5-DCP); kinetic determination; type: biochemical; conditions: purified protein, dicamba
Method: The decarboxylated and demethylated product of dicamba, 2,5-dichloro phenol or 2,5-DCP (FIG. 1E) is measured using a GC/MS analytical procedure with either liquid injection after liquid/liquid extraction using toluene as the extraction solvent or gas injection using head space method. The head space sample analysis is carried out on an Agilent GC/MS system with a 6890A GC, a 5973N MSD and a CTC CombiPAL auto-sampler or with a 7890A GC, a 5975C MSD and an Agilent GC Sampler 80 auto-sampler with Phenomenex ZB-MultiResidue-1 column (30 m length, 0.25 mm diameter, 0.25 um film) or equivalent. GC/MS parameters are: GC inlet temperature, 200° C.; Carry gas, helium in constant flow mode (1.2 mL/min); Oven temperature program, 70° C. for 1 min and then ramp to 275° C. at 40° C./min. […] The reaction vial is transferred to a agitator for incubation at 90° C. for 4 min at 500 rpm. With a syringe preheated at 110° C., 1000 uL of head space is injected with sample fill speed at 100 uL/sec. A 2-mm diameter liner is used in sample inlet. The MS data acquisition is done in SIM (selected ion monitoring) mode. The positive ion at M/Z 162 for the molecular ion of 2,-5-DCP is monitored at retention time of 4.06 min. Solvent delay for MS acquisition is set at 3 min. GC/MS parameters for liquid sample analysis are the same as those for head space analysis, except that the volume of liquid injection is 1 uL.

[4] = Dicamba decarboxylation activity of computationally designed protein variants and parents (Tables 4, 5); conditions: for dicamba decarboxylase activity (statement in the description): native proteins and designed variants, assay not specified
[5] = 14C assay: 14CO2 capture from [14C]-carboxyl-labeled dicamba with IPTG-induced recombinant E. coli cells; conditions: dicamba decarboxylation activity
[6] = Saturation mutagenesis of SEQ ID NO:109: dicamba decarboxylation activity of point mutants (Table 7)
[7] = dicamba decarboxylation activity of point mutants of SEQ ID NO: 109 from NNK saturation mutagenesis, 0.7-fold used as cut-off
[8] = point mutant of SEQ ID NO:109, dicamba decarboxylation activity relative to the unchanged template

Molecule | CO2 product detected [1] | 4-chloro-3-methoxy phenol product detected [2] | 2,5-DCP product detected [3] | dicamba decarboxylase activity (statement in the description) [4] | Percent Activity Improvement Over Parent (%) ([4]; parent (SEQ ID NO: 1 or SEQ ID NO: 41) = 100) | Enzymatic Detection level [5] | Average Activity (Fold of SEQ ID NO: 109) [6, 7] | Average Activity (Fold of SEQ ID NO: 109) [6, 8]
B1 | detected | detected | detected | improved dicamba decarboxylase activity; also recorded: displays an increase in dicamba decarboxylase activity | 220 | High | – | –
B2 | detected | detected | detected | more active than their parent sequence; also recorded: displays an increase in dicamba decarboxylase activity | – | High | – | –
B3 | detected | detected | detected | displays an increase in dicamba decarboxylase activity | – | High | – | –
B4 | detected | detected | detected | displays an increase in dicamba decarboxylase activity | – | High | – | –
B5 | detected | detected | detected | displays an increase in dicamba decarboxylase activity | – | High | – | –
B6 | detected | detected | detected | displays an increase in dicamba decarboxylase activity | – | High | – | –
B7 | – | – | – | – | – | – | 2.8 Fold of SEQ ID NO: 109 | 2.8 Fold of SEQ ID NO: 109
B8 | – | – | – | – | – | – | 2.3 Fold of SEQ ID NO: 109 | 2.3 Fold of SEQ ID NO: 109
B9 | – | – | – | – | – | – | 3.0 Fold of SEQ ID NO: 109 | –
B10 | – | – | – | – | – | – | 2.0 Fold of SEQ ID NO: 109 | –
B11 | – | – | – | – | – | – | 2.2 Fold of SEQ ID NO: 109 | 2.2 Fold of SEQ ID NO: 109
B12 | – | – | – | – | – | – | 2.0 Fold of SEQ ID NO: 109 | –
B13 | – | – | – | – | – | – | 2.0 Fold of SEQ ID NO: 109 | 2.0 Fold of SEQ ID NO: 109
B14 | – | – | – | – | – | – | 2.0 Fold of SEQ ID NO: 109 | –
B15 | – | – | – | – | – | – | 2.4 Fold of SEQ ID NO: 109 | 2.4 Fold of SEQ ID NO: 109
B16 | – | – | – | – | – | – | 2.0 Fold of SEQ ID NO: 109 | –
